In US11793825B2, “Biomarkers for predicting responsiveness to decitabine therapy” (The Regents of the University of Michigan, priority 2014, dated 2023):
“Also recorded” adds a separate entry of the source.

Experiments:
CMML patients [1] = experiment: FISM clinical trial cohort of CMML patients treated with Decitabine; format: in vivo, human; conditions: DAC 20 mg/m2/day x 5 days
Experimental: To determine whether particular genetic or epigenetic abnormalities are associated with DMTi sensitivity or resistance in this disease a cohort of primary CMML cases was studied. Bone marrow mononuclear cells (BM MNC) were collected at the time of diagnosis from 40 patients with de novo CMML. All patients included in this study were enrolled in a clinical trial of the Fondazione Italiana per le Sindromi Mielodisplastiche (FISM) and treated with DAC single agent as front-line therapy (20 mg/m^2/day×5 days) and response was evaluated after 6 cycles of treatment. Responsive patients (n=20) were defined as those who achieved either complete remission (CR), marrow complete remission (mCR), partial remission (PR) or hematological improvement (HI), as defined by the 2006 International Working Group (IWG) response criteria in myelodysplasia (see, e.g., Cheson, B. D., Blood. 2006; 108(2):419-425). Patients with either stable or progressive disease (SD and PD, respectively) were considered as having primary resistance to DAC (n=20). […] Using MiSeq to sequence DNA isolated from the diagnostic BM MNC targeted re-sequencing of a panel of genes mutated at frequencies greater than 5% in CMML was performed: SRSF2, TET2, ASXL1, NRAS, DNMT3A, RUNX1, U2AF1, TP53, JAK2, KIT, KRAS, SF3B1, EZH2, IDH1, and IDH2. […]

CMML patients [2] = experiment: GFM clinical trial cohort of CMML patients treated with Decitabine; format: in vivo, human; conditions: DAC 20 mg/m2/day x 5 days
Experimental: In order to independently validate the predictive accuracy of the SVM classifier, a second cohort of patients on which to test its performance was identified. Twenty-eight additional diagnostic CMML specimens from patients enrolled in a clinical trial from the Groupe Francophone des Myelodysplasies (GFM), all of whom had been treated with the same DAC regimen of 20 mg/m^2/day×5 days were collected and subjected to ERRBS (Table 2, Table 3). Specimens in this cohort consisted of sorted monocytes from peripheral blood (PB) and the cohort included 12 responder and 16 non-responder patients. The SVM classifier was applied blindly to these samples, without any prior knowledge of the therapeutic response labels for the cohort. Due to the stochastic nature of ERRBS, the CpG coverage is never identical across all samples, thereby leading to missing values for some regions of interest. In effect, only 6 out of the 21 features were present in all 28 GFM cohort samples. Therefore, an SVM classifier was built on these six shared features by training it on the 39 samples of the FISM cohort and then applying the trained classifier on the GFM cohort. As shown in FIG. 8D and FIG. 11B, despite this limitation the 6-feature classifier was still capable of correctly predicting response for 20/28 patients in the GFM cohort (accuracy=71%). […]

[3] = system: primary human CD34+ cells; experiment: CD34+ cell liquid culture, live cell number and viability by trypan blue exclusion; format: cell-based; conditions: 10 nM DAC daily for 3 days, with or without CXCL4/CXCL7 50 ng/mL each
Experimental: CD34+ cells were treated with one dose of CXCL4, CXCL7, or both (50 ng/mL each) or vehicle (PBS/0.1% BSA) and daily doses of 10 nM DAC for 3 days. After 3 days, live cell number (A) and viability (B) were assessed by trypan blue exclusion, and apoptosis (C) was analyzed by Annexin V and propodium iodide staining. The results shown are from one representative experiment out of two independent experiments.
Therefore, it was hypothesized that overabundance of CXCL4 and CXCL7 in the bone marrow microenvironment may act to overcome the effects of DAC. To test this, primary human CD34+ cells were cultured for 3 days in vitro with CXCL4 (50 ng/mL), CXCL7 (50 ng/mL) or a combination of both chemokines in either the presence or absence of low-dose DAC (10 nM) and then plated them in methylcellulose to test their clonogenic potential.
(§1) Cell culture and colony forming assays: CD34+ cells were isolated from cryopreserved BM MNC from femoral head specimens using the Miltenyi Biotec CD34 microbead isolation kit (San Diego, CA) per the manufacturer's instructions. For CMML cells, the cryopreserved BM MNC were rapidly thawed at 37° C. and treated with DNAse to prevent cell clumping. […] Live cell number and viability were determined by trypan blue exclusion. […] Colonies were counted after 12 to 15 days.

[4] = system: primary human CD34+ cells; experiment: Colony forming assay in methylcellulose; format: cell-based; conditions: chemokine 50 ng/mL (each) plus 10 nM DAC for 3 days
Experimental: (§2) CD34+ cells were treated with one dose of CXCL4, CXCL7, or both (50 ng/mL each) or vehicle (PBS/0.1% BSA) and daily doses of 10 nM DAC for 3 days. After 3 days of in vitro treatment with DAC, the cells were plated in methylcellulose and incubated for 12-15 days before colonies were counted. Data represent mean+standard deviation (SD). […] Shown in the three panels are the results of three independent experiments. […] CMML MNC were treated in vitro for 72 h with 10 nM DAC alone or in the presence of 50 ng/mL of CXCL4, CXCL7, or both. Data represent mean+standard deviation (SD).
as §1, with “clumping. Cells were plated in pre-stimulation media (IMDM with 20% BIT (Stem Cell Technologies, Vancouver, BC, Canada), IL-6 (20 ng/mL), SCF (100 ng/ml), TPO (100 ng/mL), FLT3L (10 ng/mL); Peprotech, Rocky Hill, N.J.) and recovered overnight.” for “clumping.”

[5] = system: primary CMML cells (BM MNC); experiment: Viability of primary CMML BM MNC in liquid culture; format: cell-based, human; conditions: chemokine 50 ng/mL plus 10 nM DAC, 72 h
Experimental: as §2
Finally, the ability of CXCL4 and CXCL7 to induce resistance in primary CMML cells was tested. BM MNC from diagnostic specimens collected from 3 patients known to be sensitive to DAC were placed in liquid culture and treated for 72 h with 10 nM DAC in the presence or absence of 50 ng/mL of CXCL4, CXCL7 or a combination of both. Viability was assessed after 72 hours.
as §1, with “instructions.” for “instructions. For CMML cells, the cryopreserved BM MNC were rapidly thawed at 37° C. and treated with DNAse to prevent cell clumping.”

bone marrow cells = conditions: in vitro; cited from earlier work

Row | Molecule | Median Survival (CMML patients [1]; non-responders (n=20)) | Median Survival (CMML patients [1]; responders (n=20)) | Median Survival (CMML patients [2]; non-responders (n=16)) | Median Survival (CMML patients [2]; responders (n=12)) | cell proliferation (live cell number) [3] | effect of chemokine on DAC-induced inhibition of colony formation [4] | effect of chemokine on the DAC-induced decrease in viability of primary CMML cells [5] | chemosensitivity of bone marrow cells to 5-fluorouracil (bone marrow cells)
1 | Nc1ncn([C@H]2C[C@H](O)[C@@H](CO)O2)c(=O)n1 [DAC, Decitabine] | 13.5 months | 26.5 months | 14.5 months | 39 months | – | – | – | –
2 | CXCL4: chemokine CXCL4 (also known as PF4), Peprotech, used at 50 ng/mL (protein, UniProt P02776 32-101, looked up) Platelet factor 4: EAEEDGDLQCLCVKTTSQVRPRHITSLEVIKAGPHCPTAQLIATLKNGRKICLDLQAPLYKKIIKKLLES | – | – | – | – | did not affect cell proliferation | did not have a significant impact on DAC-induced colony inhibition | abrogated the effect of DAC; also recorded: this effect was lost | can reduce the chemosensitivity of bone marrow cells to 5-fluorouracil
3 | CXCL7: chemokine CXCL7 (also known as PPBP), Peprotech, used at 50 ng/mL (protein, UniProt P02775 59-128, looked up, Neutrophil-activating peptide 2, chemokine CXCL7 (also known as PPBP), Peprotech, used at 50 ng/mL) Neutrophil-activating peptide …: AELRCMCIKTTSGIHPKNIQSLEVIGKGTHCNQVEVIATLKDGRKICLDPDAPRIKKIVQKKLAGDESAD | – | – | – | – | did not affect cell proliferation | did not have a significant impact on DAC-induced colony inhibition | abrogated the effect of DAC; also recorded: this effect was lost | can reduce the chemosensitivity of bone marrow cells to 5-fluorouracil
